These results are taken from paper PMC7604772 (The Journal of Cell Biology, 2020).

Square brackets hold non-standard residues; d marks the D form. * marks the point of attachment. Biotin = O=C1N[C@H]2[C@H](CS[C@H]2CCCCC(=O)*)N1; pT = C[C@@H](OP(=O)(O)O)[C@H](N)C(=O)O

This test concerns the target His-Sumo–tagged talin F3 subdomain of the FERM domain (mouse, UniProt P26039 309-411). Kind of test: pull-down.

Chain of His-Sumo–tagged talin F3 subdomain of the FERM domain (P26039 309-411): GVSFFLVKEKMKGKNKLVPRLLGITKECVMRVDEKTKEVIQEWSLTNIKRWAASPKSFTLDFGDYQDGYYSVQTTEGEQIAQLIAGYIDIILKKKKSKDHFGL

B1: biotin-integrin phospho-peptide β1-762-798 pTpT (peptide)
peptide: Biotin-EFAKFEKEKMNAKWDTGENPIYKSAV[pT][pT]VVNPKYEGK-OH
SMILES: CC[C@H](C)[C@H](NC(=O)[C@@H]1CCCN1C(=O)[C@H](CC(N)=O)NC(=O)[C@H](CCC(=O)O)NC(=O)CNC(=O)[C@@H](NC(=O)[C@H](CC(=O)O)NC(=O)[C@H](Cc1c[nH]c2ccccc12)NC(=O)[C@H](CCCCN)NC(=O)[C@H](C)NC(=O)[C@H](CC(N)=O)NC(=O)[C@H](CCSC)NC(=O)[C@H](CCCCN)NC(=O)[C@H](CCC(=O)O)NC(=O)[C@H](CCCCN)NC(=O)[C@H](CCC(=O)O)NC(=O)[C@H](Cc1ccccc1)NC(=O)[C@H](CCCCN)NC(=O)[C@H](C)NC(=O)[C@H](Cc1ccccc1)NC(=O)[C@H](CCC(=O)O)NC(=O)CCCC[C@@H]1SC[C@@H]2NC(=O)N[C@@H]21)[C@@H](C)O)C(=O)N[C@@H](Cc1ccc(O)cc1)C(=O)N[C@@H](CCCCN)C(=O)N[C@@H](CO)C(=O)N[C@@H](C)C(=O)N[C@H](C(=O)N[C@H](C(=O)N[C@H](C(=O)N[C@H](C(=O)N[C@H](C(=O)N[C@@H](CC(N)=O)C(=O)N1CCC[C@H]1C(=O)N[C@@H](CCCCN)C(=O)N[C@@H](Cc1ccc(O)cc1)C(=O)N[C@@H](CCC(=O)O)C(=O)NCC(=O)N[C@@H](CCCCN)C(=O)O)C(C)C)C(C)C)[C@@H](C)OP(=O)(O)O)[C@@H](C)OP(=O)(O)O)C(C)C
As for B1, the binding result is on record as “binds”.

B2: biotin-integrin peptide β1-762-798 (peptide)
peptide: Biotin-EFAKFEKEKMNAKWDTGENPIYKSAVTTVVNPKYEGK-OH
SMILES: CC[C@H](C)[C@H](NC(=O)[C@@H]1CCCN1C(=O)[C@H](CC(N)=O)NC(=O)[C@H](CCC(=O)O)NC(=O)CNC(=O)[C@@H](NC(=O)[C@H](CC(=O)O)NC(=O)[C@H](Cc1c[nH]c2ccccc12)NC(=O)[C@H](CCCCN)NC(=O)[C@H](C)NC(=O)[C@H](CC(N)=O)NC(=O)[C@H](CCSC)NC(=O)[C@H](CCCCN)NC(=O)[C@H](CCC(=O)O)NC(=O)[C@H](CCCCN)NC(=O)[C@H](CCC(=O)O)NC(=O)[C@H](Cc1ccccc1)NC(=O)[C@H](CCCCN)NC(=O)[C@H](C)NC(=O)[C@H](Cc1ccccc1)NC(=O)[C@H](CCC(=O)O)NC(=O)CCCC[C@@H]1SC[C@@H]2NC(=O)N[C@@H]21)[C@@H](C)O)C(=O)N[C@@H](Cc1ccc(O)cc1)C(=O)N[C@@H](CCCCN)C(=O)N[C@@H](CO)C(=O)N[C@@H](C)C(=O)N[C@H](C(=O)N[C@H](C(=O)N[C@H](C(=O)N[C@H](C(=O)N[C@H](C(=O)N[C@@H](CC(N)=O)C(=O)N1CCC[C@H]1C(=O)N[C@@H](CCCCN)C(=O)N[C@@H](Cc1ccc(O)cc1)C(=O)N[C@@H](CCC(=O)O)C(=O)NCC(=O)N[C@@H](CCCCN)C(=O)O)C(C)C)C(C)C)[C@@H](C)O)[C@@H](C)O)C(C)C
B2: the binding result is given as “binds”.
